From publication PMC6197184, “Cyclophilin J limits inflammation through the blockage of ubiquitin chain sensing” (Nature Communications, 2018)

T1: His-CYPJ (recombinant) (human, UniProt Q9H2H8 1-161)
T1 chain: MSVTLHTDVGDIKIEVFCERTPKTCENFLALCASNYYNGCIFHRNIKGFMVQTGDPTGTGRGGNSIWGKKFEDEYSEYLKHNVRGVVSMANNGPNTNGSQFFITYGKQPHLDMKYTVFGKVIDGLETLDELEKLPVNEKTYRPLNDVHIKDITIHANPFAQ

T2: His-CYPJ (recombinant) (human, UniProt Q9H2H8 1-161)
T2 construct: cyclophilin J (CYPJ, PPIL3), human; also called recombinant His-CYPJ
T2 sequence (looked up): T1 chain

B1: TAB2-NZF peptide (peptide)
peptide: QWNCTACTFLNHPALIRCEQCEMP
notes: peptide from the NZF domain of TAB2; limits counted from C670 and C673 named in the introduction; source: synthetic peptide (DgPeptides)
B2: TAB3-NZF peptide (peptide)
peptide: WNCDSCTFLNHPALNRCEQCEMP
notes: peptide from the NZF domain of TAB3; limits counted from C706 named in the introduction; source: synthetic peptide (DgPeptides)

Experiments:
[1] = biological target: T1, His-CYPJ (recombinant); assay: ITC
[2] = biological target: T2, His-CYPJ (recombinant); assay: ITC; synthetic NZF peptides and His-CYPJ; MicroCal iTC200, standard procedure; settings: both partners purified

Binder | Ka [1] | binding result [2]
B1 | 283 M⁻¹ | binds
B2 | 1030 M⁻¹ | binds
